Results published in patent publication US20200171163A1 (Daiichi Sankyo, published 2020).

T1: EC3 deletion mutant of human CDH6 (human, UniProt P55285 54-790)
T1 construct: In p3×FLAG-CMV-9; also called EC3-deleted hCDH6
T1 sequence: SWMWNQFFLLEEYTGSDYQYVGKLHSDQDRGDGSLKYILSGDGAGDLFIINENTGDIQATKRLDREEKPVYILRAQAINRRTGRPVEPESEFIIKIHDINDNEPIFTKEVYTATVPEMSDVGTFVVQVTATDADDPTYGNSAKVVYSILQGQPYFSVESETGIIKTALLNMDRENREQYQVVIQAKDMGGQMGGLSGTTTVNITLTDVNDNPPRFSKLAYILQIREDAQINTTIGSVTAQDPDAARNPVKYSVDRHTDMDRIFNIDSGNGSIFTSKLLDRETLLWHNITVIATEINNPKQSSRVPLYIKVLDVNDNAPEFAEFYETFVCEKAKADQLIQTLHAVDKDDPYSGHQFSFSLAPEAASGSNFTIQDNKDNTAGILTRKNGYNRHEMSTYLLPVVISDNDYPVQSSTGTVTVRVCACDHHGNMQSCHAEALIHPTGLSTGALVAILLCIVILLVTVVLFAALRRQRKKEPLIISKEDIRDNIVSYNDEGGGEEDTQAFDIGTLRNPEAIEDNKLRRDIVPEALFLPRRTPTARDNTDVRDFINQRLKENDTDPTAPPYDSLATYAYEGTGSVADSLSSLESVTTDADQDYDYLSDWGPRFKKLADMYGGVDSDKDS

T2: mouse CDH6 (on cells) (mouse, UniProt P97326 54-790)
T2 construct: also called mCDH6
T2 sequence: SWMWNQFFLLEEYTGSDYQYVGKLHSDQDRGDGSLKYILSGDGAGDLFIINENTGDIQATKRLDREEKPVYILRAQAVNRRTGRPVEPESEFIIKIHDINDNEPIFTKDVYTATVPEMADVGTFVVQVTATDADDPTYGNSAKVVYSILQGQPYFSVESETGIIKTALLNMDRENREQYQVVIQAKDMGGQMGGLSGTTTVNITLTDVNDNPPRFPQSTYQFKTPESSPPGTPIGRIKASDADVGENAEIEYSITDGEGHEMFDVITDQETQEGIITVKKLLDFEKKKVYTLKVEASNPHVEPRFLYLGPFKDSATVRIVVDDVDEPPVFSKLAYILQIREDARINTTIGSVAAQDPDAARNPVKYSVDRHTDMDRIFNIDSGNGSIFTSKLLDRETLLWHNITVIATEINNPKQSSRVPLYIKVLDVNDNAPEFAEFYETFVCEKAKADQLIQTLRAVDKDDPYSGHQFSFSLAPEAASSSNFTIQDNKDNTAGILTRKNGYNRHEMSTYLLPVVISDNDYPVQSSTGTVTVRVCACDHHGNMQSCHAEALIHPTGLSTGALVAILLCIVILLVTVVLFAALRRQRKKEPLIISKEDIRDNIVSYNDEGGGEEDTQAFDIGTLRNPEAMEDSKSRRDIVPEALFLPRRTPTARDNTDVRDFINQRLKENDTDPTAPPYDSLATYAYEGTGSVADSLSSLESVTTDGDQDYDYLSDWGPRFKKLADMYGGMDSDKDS


target: T1, EC3 deletion mutant of human CDH6; experiment: flow cytometry; 293α cells transfected with EC3-deleted hCDH6 (open) vs untransfected control cells (shaded); anti-rat IgG-FITC
Description: The cells were cultured overnight under conditions of 37° C. and 5% CO₂, and thereafter, a cell suspension was prepared. […] Thereafter, the cells were suspended by the addition of each of the 4 rat anti-CDH6 monoclonal antibodies (clone Nos: rG019, rG055, rG056 and rG061), which had been prepared in Example 1)-7, or rat IgG control (R&D Systems, Inc.) (final concentration: 20 nM). The cells were left standing at 4° C. for 1 hour. The cells were washed twice with PBS supplemented with 5% FBS, and then suspended by the addition of Anti-Rat IgG (whole molecule)-FITC antibody produced in rabbit (Sigma-Aldrich Co. LLC) that had been 50-fold diluted with PBS supplemented with 5% FBS. The cells were left standing at 4° C. for 1 hour. The cells were washed twice with PBS supplemented with 5% FBS, followed by detection using a flow cytometer (Canto II; BD Biosciences). The data was analyzed using FlowJo (Tree Star, Inc.). In the histograms of FIGS. 2-1 to 2-6, the abscissa depicts FITC fluorescence intensity indicating the amount of the antibody bound, and the ordinate depicts cell count. […] Fluorescence intensity is enhanced when the antibody binds to full-length hCDH6 or each EC domain deletion mutant on the surface of cells. The rat IgG control binds to none of the transfected cells.

Row | Binder | binding result
1 | rG019 antibody (antibody, V domains shown, Rat monoclonal purified from hybridoma; also called rat anti-CDH6 monoclonal antibody clone rG019) VH: QVQLQQSGAELVKPGSSVKISCKASGYTFTRNFMHWIKQQPGNGLEWIGWIYCGDGETEYNQKFNGKATLTADRSSSTAYMELSRLTSEDSAVYFCARGVYGGFAGGYFDFWGQGVMVTVSS VL: DIQMTQSPSLLSASVGDRVTLNCKASQNIYKNLAWYQQKLGEGPKLLIYDANTLQTGIPSRFSGSGSGSDFTLTISSLQPEDVATYFCQQYYSGWAFGGVTNLELKRA | no binding (tested: 20 nM (single concentration))
2 | rG055 antibody (antibody, V domains shown, Rat monoclonal purified from hybridoma; also called rat anti-CDH6 monoclonal antibody clone rG055) VH: EVQLQESGPGLVRPSQSLSLSCSVTDYSITSNYWGWIRRFPGNKMEWMGYITYSGYTSYNPSLQSRISITRDTSKNQFFLQLNSVTAEDTATYYCARSINHGGYSYVVDAWGPGASVTVSS VL: DVQMTHSPSYLAASPGESVSISCKTSKNISNYLVWYQQKPGEAYKLLIYSGSTLQSGTPSRFSGSGSGTDFTLTIRSLEPEDFGLYFCQQYYEKPFTFGSGTKLEIKR | no binding (tested: 20 nM (single concentration))
3 | rG061 antibody (antibody, V domains shown, Rat monoclonal purified from hybridoma; also called rat anti-CDH6 monoclonal antibody clone rG061) VH: EVQLQESGPGLVKPSQSLSLTCSVTGYSITTYYWGWIRKFPGNKMEWMGYISYSGRTSYNPSLKSRMSITRDASKNQFFLQLNSVTTDDTATYYCARSPINHGGYWYFDFWGPGTMVTVSS VL: DVQMTQSPSYLAASPGESVSISCKATKSISNYLAWYQQKPGEAYKVLIYSGSTLQSGTPSRFSGSGSGTDFTLTIRSLEPEDFGLYSCQQYYEKPLTFGSGTKLEIKR | no binding (tested: 20 nM (single concentration))
4 | rG056 antibody (antibody, V domains shown, Rat monoclonal purified from hybridoma; also called rat anti-CDH6 monoclonal antibody clone rG056) VH: EVQLQESGPGLVKPSQSLSLTCSVTDYSITTYFWGWIRKFPGNKMEWMGYMSYRGGTSYNPSLKSRISITRDTSKNQFFLQLNSVTTEDTATYYCARCPNYGGHSLVFDYWGQGVMVTVSS VL: DVQMTQSPSSLAASPGESVSISCRATKSIGIYLAWYQQKPGKTFKLLIYSGSTLQSGTPSRFSGSGSGTDFTLTIRSLEPEDFGLYFCQQFYENPFTFGSGTKLEIRR | no binding (tested: 20 nM (single concentration))

target: T2, mouse CDH6 (on cells); experiment: flow cytometry, MFI vs antibody concentration; 293α cells transiently transfected with mCDH6; PE anti-human IgG Fc
Description: The cells were cultured overnight under conditions of 37° C. and 5% CO₂, and thereafter, a cell suspension was prepared. […] Thereafter, the cells were suspended by the addition of each of the 4 humanized hG019 antibodies (clone Nos: H01L02, H02L02, H02L03 and H04L02), which had been prepared in Example 5)-5-3, or human IgG1 control (Calbiochem). The cells were left standing at 4° C. for 1 hour. The cells were washed twice with PBS supplemented with 5% FBS, and then suspended by the addition of anti-human IgG, Fc(gamma) PE goat F(ab′) (Jackson ImmunoResearch Laboratories, Inc.) that had been 500-fold diluted with PBS supplemented with 5% FBS. The cells were left standing at 4° C. for 1 hour. The cells were washed twice with PBS supplemented with 5% FBS, followed by detection using a flow cytometer (Canto II; BD Biosciences). The data was analyzed using FlowJo (Tree Star, Inc.). In FIGS. 6-1 and 6-2, the abscissa depicts antibody concentration, and the ordinate depicts the amount of the antibody bound based on mean fluorescence intensity. As shown in FIGS. 6-1 and 6-2, the human IgG1 control as a negative control binds to none of the CDH6-transfected cells. The 4 humanized hG019 antibodies (clone Nos: H01L02, H02L02, H02L03 and H04L02) bind to human CDH6 and cynomolgus monkey CDH6, but bind to neither mouse nor rat CDH6. None of the antibodies bind to the cells transfected with the empty vector pcDNA3.1 as a negative control.

Row | binding result | Binder
5 | no binding (tested: about 4 nM) | H02L02 antibody (antibody, human IgG1, kappa, V domains shown, Humanized IgG1/kappa (hH02 + hL02); also called humanized hG019 antibody H02L02) VH: EVQLVQSGAEVKKPGASVKVSCKASGYTFTRNFMHWVRQAPGQGLEWMGWIYPGDGETEYNQKFQGRVTITADRSTSTAYMELSSLRSEDTAVYFCARGVYGGFAGGYFDFWGQGTLVTVSS VL: DIQMTQSPSSLSASVGDRVTITCKASQNIYKNLAWYQQKPGKAPKLLIYDANTLQTGVPSRFSGSGSGSDFTLTISSLQPEDFATYFCQQYYSGWAFGQGTKVEIKR
6 | no binding (tested: about 4 nM) | H02L03 antibody (antibody, human IgG1, kappa, V domains shown, Humanized IgG1/kappa (hH02 + hL03); also called humanized hG019 antibody H02L03) VH: EVQLVQSGAEVKKPGASVKVSCKASGYTFTRNFMHWVRQAPGQGLEWMGWIYPGDGETEYNQKFQGRVTITADRSTSTAYMELSSLRSEDTAVYFCARGVYGGFAGGYFDFWGQGTLVTVSS VL: DIQMTQSPSSLSASVGDRVTITCKASQNIYKNLAWYQQKLGEGPKLLIYDANTLQTGVPSRFSGSGSGTDFTLTISSLQPEDFATYYCQQYYSGWAFGQGTKVEIKR
7 | no binding (tested: about 4 nM) | H01L02 antibody (antibody, human IgG1, kappa, V domains shown, Humanized IgG1/kappa (hH01 + hL02); also called humanized hG019 antibody H01L02; labeled H01L02) VH: EVQLVQSGAEVKKPGASVKVSCKASGYTFTRNFMHWVRQAPGQGLEWMGWIYPGDGETEYAQKFQGRVTITADTSTSTAYMELSSLRSEDTAVYYCARGVYGGFAGGYFDFWGQGTLVTVSS VL: DIQMTQSPSSLSASVGDRVTITCKASQNIYKNLAWYQQKPGKAPKLLIYDANTLQTGVPSRFSGSGSGSDFTLTISSLQPEDFATYFCQQYYSGWAFGQGTKVEIKR
8 | no binding (tested: about 4 nM) | H04L02 antibody (antibody, human IgG1, kappa, V domains shown, Humanized IgG1/kappa (hH04 + hL02); also called humanized hG019 antibody H04L02) VH: QVQLVQSGAEVKKPGASVKVSCKASGYTFTRNFMHWIRQAPGQGLEWMGWIYPGDGETEYAQKFQGRVTLTADRSTSTAYMELSSLRSEDTAVYYCARGVYGGFAGGYFDFWGQGTLVTVSS VL: DIQMTQSPSSLSASVGDRVTITCKASQNIYKNLAWYQQKPGKAPKLLIYDANTLQTGVPSRFSGSGSGSDFTLTISSLQPEDFATYFCQQYYSGWAFGQGTKVEIKR
